B1: GluN3A subunit: N275Q (protein)
parent chain: MRRLSLWWLLSRVCLLLPPPCALVLAGVPSSSSHPQPCQILKRIGHAVRVGAVHLQPWTTAPRAASRAQEGGRAGAQRDDPESGTWRPPAPSQGARWLGSALHGRGPPGSRKLGEGAGAETLWPRDALLFAVENLNRVEGLLPYNLSLEVVMAIEAGLGDLPLMPFSSPSSPWSSDPFSFLQSVCHTVVVQGVSALLAFPQSQGEMMELDLVSSVLHIPVLSIVRHEFPRESQNPLHLQLSLENSLSSDADVTVSILTMNNWYNFSLLLCQEDWNITDFLLLTENNSKFHLESVINITANLSSTKDLLSFLQVQMDNIRNSTPTMVMFGCDMDSIRQIFEMSTQFGLSPPELHWVLGDSQNVEELRTEGLPLGLIAHGKTTQSVFEYYVQDAMELVARAVATATMIQPELALLPSTMNCMDVKTTNLTSGQYLSRFLANTTFRGLSGSIKVKGSTIISSENNFFIWNLQHDPMGKPMWTRLGSWQGGRIVMDSGIWPEQAQRHKTHFQHPNKLHLRVVTLIEHPFVFTREVDDEGLCPAGQLCLDPMTNDSSMLDRLFSSLHSSNDTVPIKFKKCCYGYCIDLLEQLAEDMNFDFDLYIVGDGKYGAWKNGHWTGLVGDLLSGTANMAVTSFSINTARSQVIDFTSPFFSTSLGILVRTRDTAAPIGAFMWPLHWTMWLGIFVALHITAIFLTLYEWKSPFGMTPKGRNRNKVFSFSSALNVCYALLFGRTAAIKPPKCWTGRFLMNLWAIFCMFCLSTYTANLAAVMVGEKIYEELSGIHDPKLHHPSQGFRFGTVRESSAEDYVRQSFPEMHEYMRRYNVPATPDGVQYLKNDPEKLDAFIMDKALLDYEVSIDADCKLLTVGKPFAIEGYGIGLPPNSPLTSNISELISQYKSHGFMDVLHDKWYKVVPCGKRSFAVTETLQMGIKHFSGLFVLLCIGFGLSILTTIGEHIVHRLLLPRIKNKSKLQYWLHTSQRFHRALNTSFVEEKQPRSKTKRVEKSRWRRWTCKTEGDSELSLFPRSNLGPQQLMVWNTSNLSHDNQRKYIFNDEEGQNQLGTQAHQDIPLPQRRRELPASLTTNGKADSLNVTRSSVIQELSELEKQIQVIRQELQLAVSRKTELEEYQKTNRTCES
B2: GluN3A subunit: N285Q (protein)
parent chain: MRRLSLWWLLSRVCLLLPPPCALVLAGVPSSSSHPQPCQILKRIGHAVRVGAVHLQPWTTAPRAASRAQEGGRAGAQRDDPESGTWRPPAPSQGARWLGSALHGRGPPGSRKLGEGAGAETLWPRDALLFAVENLNRVEGLLPYNLSLEVVMAIEAGLGDLPLMPFSSPSSPWSSDPFSFLQSVCHTVVVQGVSALLAFPQSQGEMMELDLVSSVLHIPVLSIVRHEFPRESQNPLHLQLSLENSLSSDADVTVSILTMNNWYNFSLLLCQEDWNITDFLLLTENNSKFHLESVINITANLSSTKDLLSFLQVQMDNIRNSTPTMVMFGCDMDSIRQIFEMSTQFGLSPPELHWVLGDSQNVEELRTEGLPLGLIAHGKTTQSVFEYYVQDAMELVARAVATATMIQPELALLPSTMNCMDVKTTNLTSGQYLSRFLANTTFRGLSGSIKVKGSTIISSENNFFIWNLQHDPMGKPMWTRLGSWQGGRIVMDSGIWPEQAQRHKTHFQHPNKLHLRVVTLIEHPFVFTREVDDEGLCPAGQLCLDPMTNDSSMLDRLFSSLHSSNDTVPIKFKKCCYGYCIDLLEQLAEDMNFDFDLYIVGDGKYGAWKNGHWTGLVGDLLSGTANMAVTSFSINTARSQVIDFTSPFFSTSLGILVRTRDTAAPIGAFMWPLHWTMWLGIFVALHITAIFLTLYEWKSPFGMTPKGRNRNKVFSFSSALNVCYALLFGRTAAIKPPKCWTGRFLMNLWAIFCMFCLSTYTANLAAVMVGEKIYEELSGIHDPKLHHPSQGFRFGTVRESSAEDYVRQSFPEMHEYMRRYNVPATPDGVQYLKNDPEKLDAFIMDKALLDYEVSIDADCKLLTVGKPFAIEGYGIGLPPNSPLTSNISELISQYKSHGFMDVLHDKWYKVVPCGKRSFAVTETLQMGIKHFSGLFVLLCIGFGLSILTTIGEHIVHRLLLPRIKNKSKLQYWLHTSQRFHRALNTSFVEEKQPRSKTKRVEKSRWRRWTCKTEGDSELSLFPRSNLGPQQLMVWNTSNLSHDNQRKYIFNDEEGQNQLGTQAHQDIPLPQRRRELPASLTTNGKADSLNVTRSSVIQELSELEKQIQVIRQELQLAVSRKTELEEYQKTNRTCES
B3: GluN3A subunit: N296Q (protein)
parent chain: MRRLSLWWLLSRVCLLLPPPCALVLAGVPSSSSHPQPCQILKRIGHAVRVGAVHLQPWTTAPRAASRAQEGGRAGAQRDDPESGTWRPPAPSQGARWLGSALHGRGPPGSRKLGEGAGAETLWPRDALLFAVENLNRVEGLLPYNLSLEVVMAIEAGLGDLPLMPFSSPSSPWSSDPFSFLQSVCHTVVVQGVSALLAFPQSQGEMMELDLVSSVLHIPVLSIVRHEFPRESQNPLHLQLSLENSLSSDADVTVSILTMNNWYNFSLLLCQEDWNITDFLLLTENNSKFHLESVINITANLSSTKDLLSFLQVQMDNIRNSTPTMVMFGCDMDSIRQIFEMSTQFGLSPPELHWVLGDSQNVEELRTEGLPLGLIAHGKTTQSVFEYYVQDAMELVARAVATATMIQPELALLPSTMNCMDVKTTNLTSGQYLSRFLANTTFRGLSGSIKVKGSTIISSENNFFIWNLQHDPMGKPMWTRLGSWQGGRIVMDSGIWPEQAQRHKTHFQHPNKLHLRVVTLIEHPFVFTREVDDEGLCPAGQLCLDPMTNDSSMLDRLFSSLHSSNDTVPIKFKKCCYGYCIDLLEQLAEDMNFDFDLYIVGDGKYGAWKNGHWTGLVGDLLSGTANMAVTSFSINTARSQVIDFTSPFFSTSLGILVRTRDTAAPIGAFMWPLHWTMWLGIFVALHITAIFLTLYEWKSPFGMTPKGRNRNKVFSFSSALNVCYALLFGRTAAIKPPKCWTGRFLMNLWAIFCMFCLSTYTANLAAVMVGEKIYEELSGIHDPKLHHPSQGFRFGTVRESSAEDYVRQSFPEMHEYMRRYNVPATPDGVQYLKNDPEKLDAFIMDKALLDYEVSIDADCKLLTVGKPFAIEGYGIGLPPNSPLTSNISELISQYKSHGFMDVLHDKWYKVVPCGKRSFAVTETLQMGIKHFSGLFVLLCIGFGLSILTTIGEHIVHRLLLPRIKNKSKLQYWLHTSQRFHRALNTSFVEEKQPRSKTKRVEKSRWRRWTCKTEGDSELSLFPRSNLGPQQLMVWNTSNLSHDNQRKYIFNDEEGQNQLGTQAHQDIPLPQRRRELPASLTTNGKADSLNVTRSSVIQELSELEKQIQVIRQELQLAVSRKTELEEYQKTNRTCES
B4: GluN3A subunit: N320Q (protein)
parent chain: MRRLSLWWLLSRVCLLLPPPCALVLAGVPSSSSHPQPCQILKRIGHAVRVGAVHLQPWTTAPRAASRAQEGGRAGAQRDDPESGTWRPPAPSQGARWLGSALHGRGPPGSRKLGEGAGAETLWPRDALLFAVENLNRVEGLLPYNLSLEVVMAIEAGLGDLPLMPFSSPSSPWSSDPFSFLQSVCHTVVVQGVSALLAFPQSQGEMMELDLVSSVLHIPVLSIVRHEFPRESQNPLHLQLSLENSLSSDADVTVSILTMNNWYNFSLLLCQEDWNITDFLLLTENNSKFHLESVINITANLSSTKDLLSFLQVQMDNIRNSTPTMVMFGCDMDSIRQIFEMSTQFGLSPPELHWVLGDSQNVEELRTEGLPLGLIAHGKTTQSVFEYYVQDAMELVARAVATATMIQPELALLPSTMNCMDVKTTNLTSGQYLSRFLANTTFRGLSGSIKVKGSTIISSENNFFIWNLQHDPMGKPMWTRLGSWQGGRIVMDSGIWPEQAQRHKTHFQHPNKLHLRVVTLIEHPFVFTREVDDEGLCPAGQLCLDPMTNDSSMLDRLFSSLHSSNDTVPIKFKKCCYGYCIDLLEQLAEDMNFDFDLYIVGDGKYGAWKNGHWTGLVGDLLSGTANMAVTSFSINTARSQVIDFTSPFFSTSLGILVRTRDTAAPIGAFMWPLHWTMWLGIFVALHITAIFLTLYEWKSPFGMTPKGRNRNKVFSFSSALNVCYALLFGRTAAIKPPKCWTGRFLMNLWAIFCMFCLSTYTANLAAVMVGEKIYEELSGIHDPKLHHPSQGFRFGTVRESSAEDYVRQSFPEMHEYMRRYNVPATPDGVQYLKNDPEKLDAFIMDKALLDYEVSIDADCKLLTVGKPFAIEGYGIGLPPNSPLTSNISELISQYKSHGFMDVLHDKWYKVVPCGKRSFAVTETLQMGIKHFSGLFVLLCIGFGLSILTTIGEHIVHRLLLPRIKNKSKLQYWLHTSQRFHRALNTSFVEEKQPRSKTKRVEKSRWRRWTCKTEGDSELSLFPRSNLGPQQLMVWNTSNLSHDNQRKYIFNDEEGQNQLGTQAHQDIPLPQRRRELPASLTTNGKADSLNVTRSSVIQELSELEKQIQVIRQELQLAVSRKTELEEYQKTNRTCES
B5: GluN3A subunit: N300Q (protein)
parent chain: MRRLSLWWLLSRVCLLLPPPCALVLAGVPSSSSHPQPCQILKRIGHAVRVGAVHLQPWTTAPRAASRAQEGGRAGAQRDDPESGTWRPPAPSQGARWLGSALHGRGPPGSRKLGEGAGAETLWPRDALLFAVENLNRVEGLLPYNLSLEVVMAIEAGLGDLPLMPFSSPSSPWSSDPFSFLQSVCHTVVVQGVSALLAFPQSQGEMMELDLVSSVLHIPVLSIVRHEFPRESQNPLHLQLSLENSLSSDADVTVSILTMNNWYNFSLLLCQEDWNITDFLLLTENNSKFHLESVINITANLSSTKDLLSFLQVQMDNIRNSTPTMVMFGCDMDSIRQIFEMSTQFGLSPPELHWVLGDSQNVEELRTEGLPLGLIAHGKTTQSVFEYYVQDAMELVARAVATATMIQPELALLPSTMNCMDVKTTNLTSGQYLSRFLANTTFRGLSGSIKVKGSTIISSENNFFIWNLQHDPMGKPMWTRLGSWQGGRIVMDSGIWPEQAQRHKTHFQHPNKLHLRVVTLIEHPFVFTREVDDEGLCPAGQLCLDPMTNDSSMLDRLFSSLHSSNDTVPIKFKKCCYGYCIDLLEQLAEDMNFDFDLYIVGDGKYGAWKNGHWTGLVGDLLSGTANMAVTSFSINTARSQVIDFTSPFFSTSLGILVRTRDTAAPIGAFMWPLHWTMWLGIFVALHITAIFLTLYEWKSPFGMTPKGRNRNKVFSFSSALNVCYALLFGRTAAIKPPKCWTGRFLMNLWAIFCMFCLSTYTANLAAVMVGEKIYEELSGIHDPKLHHPSQGFRFGTVRESSAEDYVRQSFPEMHEYMRRYNVPATPDGVQYLKNDPEKLDAFIMDKALLDYEVSIDADCKLLTVGKPFAIEGYGIGLPPNSPLTSNISELISQYKSHGFMDVLHDKWYKVVPCGKRSFAVTETLQMGIKHFSGLFVLLCIGFGLSILTTIGEHIVHRLLLPRIKNKSKLQYWLHTSQRFHRALNTSFVEEKQPRSKTKRVEKSRWRRWTCKTEGDSELSLFPRSNLGPQQLMVWNTSNLSHDNQRKYIFNDEEGQNQLGTQAHQDIPLPQRRRELPASLTTNGKADSLNVTRSSVIQELSELEKQIQVIRQELQLAVSRKTELEEYQKTNRTCES

This data set is described as follows: surface/total immunofluorescence, COS-7, with GluN1-4a. The following applies: glycan lost; control: wild-type GluN1/GluN3A.
Consider B1, for which the localisation_or_trafficking entry was “no change”.
Consider B2, for which the localisation_or_trafficking result is “no change”.
In the case of B3 it was “no change”; in that of B4, “no change”; in that of B5, “no change”.

The values are drawn from paper PMC5994540.
